Assay results as given in article PMC7586746, “A putative nuclear copper chaperone promotes plant immunity in Arabidopsis” (Journal of Experimental Botany, 2020).

T1: GST–NPR1 (UniProt P93002 1-593)
T1 construct: NPR1 (non-expressor of pathogenesis-related gene 1), cloned into pGEX-4T-1; source: E. coli BL21, purified
T1 sequence (looked up): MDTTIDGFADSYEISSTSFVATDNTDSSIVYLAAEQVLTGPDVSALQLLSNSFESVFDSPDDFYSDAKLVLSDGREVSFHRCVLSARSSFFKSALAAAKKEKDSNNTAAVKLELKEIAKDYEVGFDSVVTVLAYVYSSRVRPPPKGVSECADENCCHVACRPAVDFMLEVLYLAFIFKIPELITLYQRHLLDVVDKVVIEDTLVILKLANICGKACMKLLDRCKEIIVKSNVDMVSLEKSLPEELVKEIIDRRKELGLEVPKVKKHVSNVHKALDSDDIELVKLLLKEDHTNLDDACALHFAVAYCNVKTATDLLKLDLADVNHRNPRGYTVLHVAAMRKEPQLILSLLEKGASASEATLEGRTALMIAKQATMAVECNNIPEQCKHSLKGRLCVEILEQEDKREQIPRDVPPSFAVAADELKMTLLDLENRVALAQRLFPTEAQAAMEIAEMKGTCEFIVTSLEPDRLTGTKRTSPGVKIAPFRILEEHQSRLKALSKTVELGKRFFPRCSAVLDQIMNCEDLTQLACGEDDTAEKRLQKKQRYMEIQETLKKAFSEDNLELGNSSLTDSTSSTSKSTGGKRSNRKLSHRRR

B1: His-TGA2 (natural protein, UniProt P43273 1-330, looked up)
chain: MADTSPRTDVSTDDDTDHPDLGSEGALVNTAASDSSDRSKGKMDQKTLRRLAQNREAARKSRLRKKAYVQQLENSRLKLTQLEQELQRARQQGVFISGTGDQAHSTGGNGALAFDAEHSRWLEEKNKQMNELRSALNAHAGDSELRIIVDGVMAHYEELFRIKSNAAKNDVFHLLSGMWKTPAERCFLWLGGFRSSELLKLLANQLEPMTERQLMGINNLQQTSQQAEDALSQGMESLQQSLADTLSSGTLGSSSSGNVASYMGQMAMAMGKLGTLEGFIRQADNLRLQTLQQMIRVLTTRQSARALLAIHDYFSRLRALSSLWLARPRE
notes: transcription factor TGA2
B2: LS7 probe (PR1 promoter) (dsDNA)
DNA 1: TATTTTACTTACGTCATAGATGTGGCGGCA
DNA 2: TGCCGCCACATCTATGACGTAAGTAAAATA

What was measured:
GST–NPR1 = molecular target: T1, GST–NPR1; experiment: pull-down; GST pull-down in vitro of His-CCP and His-TGA2 added together, in the presence of Cu^2+ (Supplementary Fig. S13); settings: both partners purified
NPR1 = NPR1 (UniProt P93002 1-593); experiment: EMSA; NPR1 alone; LightShift EMSA kit: 500 ng GST-tagged protein, 4 fmol biotin-LS7 probe, 20 ul with 1 ul dI-dC, 1 ul 50% glycerol, kit 10x binding buffer, 20 min, 25 C; 6% native gel; salt and pH not stated; settings: protein: recombinant; tags: GST (N-terminal); blunt
TGA2;NPR1 = TGA2;NPR1 (Arabidopsis thaliana?;Arabidopsis …, UniProt P43273;P93002 1-330;1-593, |); experiment: EMSA; with NPR1; substantially more probe bound than TGA2 alone; LightShift EMSA kit: 500 ng GST-tagged protein, 4 fmol biotin-LS7 probe, 20 ul with 1 ul dI-dC, 1 ul 50% glycerol, kit 10x binding buffer, 20 min, 25 C; 6% native gel; salt and pH not stated; settings: protein: recombinant;recombinant; tags: GST (N-terminal);GST (N-terminal); blunt

| Binder | binding result (GST–NPR1) | binding result (NPR1) | binding result (TGA2;NPR1) |
| --- | --- | --- | --- |
| B1 | binds |  |  |
| B2 |  | no binding | binds |
